We go through 13 molecules from patent US20040202655A1 (published 2004).

As usually defined, the IC50 is the concentration at which inhibition is half-maximal. A lower IC50 goes with inhibition by little substance.

Changes are numbered by the printed parent chain. Values joined by “and” are separate entries in the source; they are usually repeats but may differ in a detail not shown here. Equal values may be shown once.

B1: PINT-11A2 IgG (antibody, V domains shown)
VH: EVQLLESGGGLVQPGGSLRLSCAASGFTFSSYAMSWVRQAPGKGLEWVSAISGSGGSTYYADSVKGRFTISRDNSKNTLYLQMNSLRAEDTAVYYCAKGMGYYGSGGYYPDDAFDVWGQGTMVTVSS
VL: LSSELTQDPDVSMALGQTVTISCRGDSLKRFYASWYHQKPGQAPVLVFYGKENRPSGIPDRFSGSDSGDTASLTITGAQAEDEGDYYCHTQDTSARQYVFGSGTKVTVLG
B2: PINT-11A1 IgG (antibody, V domains shown)
VH: EVQLVESGGGVVQPGRSLRLSCAASGFTFSDFAMHWVRQIPGKGLEWLSGLRHDGSTAYYAGSVKGRFTISRDNSRNTVYLQMNSLRAEDTATYYCVTGSGSSGPHAFPVWGKGTLVTVSS
VL: not shown
B3: PINT-11A11 IgG (antibody, V domains shown)
VH: QVQLVESGGGLVKPGGSLRLSCAASGFTFSSHTMNWVRQAQGKGLEWVSSISGSGRYIYYSDSVKGRFTISRDAAKNSLYLQMNNLRAEDTAVYYCTRAKFGDYLFDSWGQGTLVTVSS
VL: LNFMLTQPHSVSQSPGKTVTISCTRSSGRIASNFVQWYQQRPGSAPTTVIYEDNRRPSGVPDRFSGSIDSSSNSASLTISGLKTEDEADYYCQSYDARYQVFGTGTKVTVLG
B4: PINT-11A5 IgG (antibody, V domains shown)
VH: QVQLVQSGAEVKKPGASVKVSCKASGYSFTNYGLNWVRQAPGQGLEWMGWISPYTGYTNYAQKFQGRVTMTTDKSTSTAYMDLRSLRSDDTAVYYCAREIFSHCTGGSCYPFDSWGKGTLVTVSS
VL: LSSELTQDPAVSVALGQTVRITCQGDSLRSYYASWYQQKPGQAPVLVIYGKNNRPSGIPDRFSGSSSGNTASLTITGAQAEDEADYYCNSRDSSGNHHWVFGGGTKVTVLG
B5: PINT-12A1 IgG (antibody, V domains shown)
VH: B4 VH with Q1E
VL: LSSELTQDPAVSVALGQTVRITCQGDSLRNYYASWYQQKPGQAPVLVLYSKNSRPSGVPDRFSGSSSGTTASLTISGAQAEDEADYYCNSRDTSGDLRWVFGGGTKLTVLG
notes: see recheck
B6: PINT-12A3 IgG (antibody, V domains shown)
VH: B4 VH with T72S, V93I, T105S, S114Y, K117Q
VL: LSSELTQDPAVSVALGQTVRITCQGDSLRSYYASWYQQKPGQAPLLVIYGRNNRPSGIPDRFSGSSSGNTASLTITGAQAEDEADYYCNSRDSSTNHGNWVFGGGTQLTVLS
B7: PINT-11A7 IgG (antibody, V domains shown)
VH: B4 VH with Q1E, N35D, K117R, L120M
VL: B6 VL with L45V, R51K, T95G, G98R, Q107K, L108V, S112G
B8: PINT-12A4 IgG (antibody, V domains shown)
VH: B4 VH with K117R, L120M
VL: B4 VL with H97L, H98N, K106Q, V107L, G111S
B9: PINT-12A2 IgG (antibody, V domains shown)
VH: B4 VH with Q1E, K117Q
VL: LSSELTQDPAVSVALGQTVRITCQGDSLRNYYASWYQQKPGQAPLLVMFGKNNRPSEIPGRFSGSSSGNTASLTITGAQAEDEADYYCNSRDSNSHQWVFGGGTKLTVLG
B10: PINT-7A2 IgG (antibody, V domains shown)
VH: GVQLVQSGAEVKKPGESLTISCKGSGYNFFNYWIGWVRQMPGKGLEWMGIIYPTDSDTRYSPSFQGQVTISVDKSISTAYLQWSSLKASDTAMYYCARSIRYCPGGRCYSGYYGMDVWGQGTMVTVSS
VL: SELTQDPAVSVALGQTVRITCQGDSLRSYYTNWFQQKPGQAPLLVVYAKNKRPSGIPDRFSGSSSGNTASLTITGAQAEDEADYYCNSRDSSGNHVVFGGGTKLTVLG
B11: PINT-7A6 IgG (antibody, V domains shown)
VH: B10 VH with G1E, M123L
VL: B10 VL
B12: PINT-11A12 IgG (antibody, V domains shown)
VH: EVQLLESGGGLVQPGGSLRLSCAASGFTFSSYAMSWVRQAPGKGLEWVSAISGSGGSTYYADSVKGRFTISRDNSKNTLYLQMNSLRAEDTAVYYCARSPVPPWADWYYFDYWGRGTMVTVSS
VL: AQAVLTQPSSVSGAPGQRVTISCTGSRSNFGAGYDVHWYQQFPGTAPKLLIYGNTNRPSGVPDRFSGSRSGTSASLAITGLQAEDEADYYCQSYDSNLSGSVFGGGTKVTVLG
B13: PINT-11A3 IgG (antibody, V domains shown)
VH: B4 VH with Q1E, K117R
VL: B9 VL with S93R

The first assay concerns the target T1, human IGF-I receptor on cells (NIH-3T3 fibroblasts expressing the human IGF-IR; DU145 cells) (human, UniProt P08069 31-1367). The assay can be described thus: cell-based or functional assay.
Regarding B1, the “Antagonist Assay IC50 (nM), IGF-I-induced IGF-1R tyrosine phosphorylation (ELISA)” value (“Antagonist Assay IC50 (nM)” for short) is over 40 nM.

For the molecule B2, the “Antagonist Assay IC50 (nM)” value was 5.4 nM and 7.4 nM.

As for B3, the “Antagonist Assay IC50 (nM)” value is 14.9 nM and 10.6 nM.

B4: the “Antagonist Assay IC50 (nM)” value is over 40 nM.

For B5, the “Antagonist Assay IC50 (nM)” value is over 40 nM.

As for B6, the “Antagonist Assay IC50 (nM)” value was over 40 nM.

As for B7, the “Antagonist Assay IC50 (nM)” value was 26.6 nM and > 40 nM and 25.5 nM.

With B8, the “Antagonist Assay IC50 (nM)” value was over 40 nM.

For B9, the “Antagonist Assay IC50 (nM)” value is over 40 nM.

In the case of B10, the “Antagonist Assay IC50 (nM)” value was 2.62 nM and 1.97 nM.

Turning to B11, the “Antagonist Assay IC50 (nM)” value was 9.7 nM and 8.5 nM.

As to B12, the “Antagonist Assay IC50 (nM)” value was over 40 nM.

The next assay deals with T1, human IGF-I receptor on cells (NIH-3T3 …). The assay can be described thus: competition with 125I-IGF-II, NIH-3T3 cells expressing human IGF-1R, 4 C. As to the method: (§1) NIH-3T3 fibroblasts expressing the human IGF-IR, or NIH-3T3 non-transfected fibroblasts were plated at 6×10⁴ cells per well in 0.5 ml of DMEM (Gibco, #11960-044) supplemented with 10% heat-inactivated fetal bovine serum (Gibco, #16140-071), 2 mM L-glutamine (Gibco, #25030-081) and 50 U/ml penicillin-streptomycin (Gibco, #15070-063). The NIH-3T3 cells were used as a control for non-specific cell binding. The plates were incubated at 37° C./5% CO₂ for 24 hours to allow cells to attach and become 80-90% confluent. The overlying media was then replaced with 0.5 ml per well of starvation media consisting of DMEM, 20 mM Hepes (Gibco, #15630-080), 2 mM L-glutamine and 0.1% bovine serum albumin (Equitech-Bio, protease-free, Kerrville, Tex.) and the plates were incubated at 37° C., 5% CO₂ overnight. All subsequent binding steps were conducted at 4° C. Test antibodies were diluted in ice-cold starvation media to the desired final concentration and 100 μl added per well. All samples were performed in duplicate. […] Cell monolayers were washed three times with ice-cold PBS (Gibco, #14040-117) and cells and associated radioactivity were released by adding 0.5ml 2% sodium dodecyl sulfate/0.2N NaOH to each well and heating the plates at 60° C. for 15 minutes. Lysate associated radioactivity was quantitated by gamma scintillation spectrometry. Alternatively, the same described experiment was performed with preincubation with the test antibodies at 37° C. for 10 minutes, followed by 10 minutes incubation at 37° C. after addition of 400 pM of the iodinated radioligand.
Regarding B2, the IC50 was over 75 nM.

On to B10, for which the half-maximal inhibitory concentration (IC50) was < 0.8 nM and 0.4 nM.

Regarding B11, the 50% inhibitory concentration (IC50) was < 0.8 nM and 0.3 nM.

A further assay has the same target. The assay can be described thus: competition with 125I-IGF-I, NIH-3T3 cells expressing human IGF-1R, 4 C. On the procedure: as §1
Regarding B1, the half-inhibitory concentration (IC50) is over 100 nM.

As for B2, the IC50 is 8 nM and 10 nM.

B3 had a half-inhibitory concentration (IC50) of 1.6 nM.

As to B13, the IC50 was 1.1 nM and 1.2 nM.

Consider B4, for which the half-maximal inhibitory concentration (IC50) is 1.2 nM and < 0.4 nM and 0.75 nM.

Take B5: the IC50 was 1.5 nM and 1.2 nM.

On to B6, for which the IC50 is 1.5 nM and 1.7 nM.

For the molecule B7, the half-inhibitory concentration (IC50) is 1 nM and 1.4 nM.

Take B8: the IC50 is over 50 nM.

With B9, the concentration for half-maximal inhibition (IC50) was 1 nM and 0.7 nM.

Take B10: the IC50 was 0.5 nM and 1.3 nM.

For the molecule B11, the IC50 is 1 nM and 0.8 nM.

The next assay addresses T2, human insulin receptor on CHO cells (human, UniProt P06213 28-1382).
T2 construct: whole, on cells
The assay can be described thus: competition with 125I-insulin, CHO cells expressing human insulin receptor, 4 C. As to the method:
The Parental 3T3 cells were used as a control for background radioactivity. We then incubated the plates at 37° C., 5% CO₂ for 24 hours to allow cells to attach and become 80-90% confluent. The media was decanted from the plates, replaced with 500 μl per well of starvation or assay media consisting of IMDM, 20 mM Hepes (Gibco, #15630-080), 2 mM L-glutamine and 0.1% bovine serum albumin (Equitech-Bio, protease-free, Kerryville, Tex.) and the plates were incubated at 37° C., 5% CO₂ overnight. The antibodies were diluted in cold assay media to the desired final concentration and added 100 μl per well. All samples were performed in duplicate. The plates were incubated at 4° C. for 30 minutes. […] The plates were incubated for 2.5 hours at 4° C., then aspirated the media and washed 3× with cold DPBS (Gibco, #14040-117). The cells were lysed by adding 500 μl 0.2 NaOH, 2% SDS and incubating the plates for 15 minutes at 60° C. The samples were transferred to 12×75 tubes (Sarsted, #55.476, 5 ml) and the signal read on a gamma counter.
B3 had a half-inhibitory concentration (IC50) of over 200 nM.

The molecule B4 returned a half-inhibitory concentration (IC50) of over 200 nM.

B5 displayed a half-maximal inhibitory concentration (IC50) of over 200 nM.

In turn, B6 showed an IC50 of over 200 nM.

In turn, B7 returned a 50% inhibitory concentration (IC50) of over 200 nM.

On to B8, for which the IC50 is over 200 nM.

B9 returned an IC50 of over 200 nM.

For the molecule B12, the half-maximal inhibitory concentration (IC50) was over 200 nM.

Another assay addresses T1, human IGF-I receptor on cells (NIH-3T3 …). The assay can be described thus: cell-based or functional assay. The source holds these as a separate data set.
B1: the “IC50 (nM), IGF-1 dependent proliferation of NIH-3T3/hIGF-1R cells (BrdU ELISA)” value (“IC50 … of NIH-3T3/hIGF-1R cells (BrdU ELISA)” for short) was over 70 nM.

For B2, the “IC50 … of NIH-3T3/hIGF-1R cells (BrdU ELISA)” value is 5.4 nM and 3.3 nM.

For B3, the “IC50 … of NIH-3T3/hIGF-1R cells (BrdU ELISA)” value was 16.4 nM and 25 nM.

B13: the “IC50 … of NIH-3T3/hIGF-1R cells (BrdU ELISA)” value was 32.1 nM and > 70 nM.

In the case of B4, the “IC50 … of NIH-3T3/hIGF-1R cells (BrdU ELISA)” value is over 70 nM.

For the molecule B5, the “IC50 … of NIH-3T3/hIGF-1R cells (BrdU ELISA)” value was over 70 nM.

For B6, the “IC50 … of NIH-3T3/hIGF-1R cells (BrdU ELISA)” value was over 70 nM.

As for B7, the “IC50 … of NIH-3T3/hIGF-1R cells (BrdU ELISA)” value is over 70 nM.

For B8, the “IC50 … of NIH-3T3/hIGF-1R cells (BrdU ELISA)” value was over 70 nM.

For the molecule B9, the “IC50 … of NIH-3T3/hIGF-1R cells (BrdU ELISA)” value was over 70 nM.

Turning to B10, the “IC50 … of NIH-3T3/hIGF-1R cells (BrdU ELISA)” value is 5 nM and 3.8 nM.

As for B11, the “IC50 … of NIH-3T3/hIGF-1R cells (BrdU ELISA)” value was over 70 nM.

Regarding B12, the “IC50 … of NIH-3T3/hIGF-1R cells (BrdU ELISA)” value was over 70 nM.
